The DeepSol protein solubility set

assay: soluble on expression in E. coli; label from the status in PepcDB or PDB records

| Sequence | soluble on expression in E. coli |
| --- | --- |
| MESEQCPVGKIPHIRMDDGAGIEEFYTFGRILGQGSFGMVFEAIDKETGAKWAIKKVNKEKAGSSAMKLLEREVSILKTVNHQHIIHLEQVFESPQKMYLVMELCEDGELKAVMDQRGHFSENETRLIIQSLASAIAYLHNKDIVHRDLKLENIMVKSSFIDDNNEMNLNIKVTDFGLSVQKHGSRSEGMMQTTCGTPIYMAPEVINAHDYSQQCDIWSIGVIMFILLCGEPPFLANSEEKLYELIKKGELRFENPVWESVSDSAKNTLKQLMKVDPAHRITAKELLDNQWLTGNTLSSARPTNVLEMMKEWKNNPESDEETNTDEETEQSAVYSPSANTAKQPTNAAKKPAAESVGMTSSNSSSSKLLSAESKAEPEKSSETVGHASVAKTTLKSTTLFRGKKRL | soluble |
| MGSDKIHHHHHHMTVSNPAKSIRIGTMISGNNGDAATRIREIAGLGFESFEPFFWQTTKGQNLAELGKRCVDAIGDRDITISTLGMFGNPLEETDIDLETLEGWKQCIDNAHHFGASCVAGFTGRLRGKVLTDSLPRYREIWSELAKRAADKGIRIAFENCAMDGNWQSGDWNIAHNPDAWELMFNETPDDNIGLEWEPCHQMVYLIDPLPQIRKWASKIFHVHGKDATIRWDVIREHGIFGKEPFVFMRTPGFGDSNWTNVISELRLAGYSGSIDIEGWHDPVYRDALEMTGQVHALNHLKQARGGDFIDEMAAYGGGDPSLK | not soluble |
| SLNSLASHTFISGSTGTGKSNTVYEILDEVRKHGVKFLVVEPVKGEYKHIFGNDENVSVYGTNPELSDLLRINPFAFPKGIHVLEHLDRLIEIFNVCWPMYAAMPAVLKNAVERAYEDSGWDLLKSINSYGDLYPTFADVTRNIKEIIDSSEYDNENKGAYKGSLLTRLESLTNGINGMIFTNQAITDKELFDENVIIDLSRVGSTETKSLIMGMLVLKLQEYRMTHTDSLNNILKHVTVLEEAHNILKRTSNEQSMEDSNLVGKSVEMIANGIAEMRTYGEGFIIADQAPGLMDMAVIRNTNTKIIMRLPDFSDRELVGKSANL | not soluble |
| MTQANLSETLFKPRFKHPETSTLVRRFNHGAQPPVQSALDGKTIPHWYRMINRLMWIWRGIDPREILDVQARIVMSDAERTDDDLYDTVIGYRGGNWIYEWATQAMVWQQKACTEEDPQLSGRHWLHAATLYNIAAYPHLKGDDLAEQAQALSNRAYEEAAQRLPGTMRQMEFTVPGGAPITGFLHMPKGDGPFPTVLMCGGLDAMQTDYYSLYERYFAPRGIAMLTIDMPSVGFSSKWKLTQDSSLLHQHVLKALPNVPWVDHTRVAAFGFRFGANVAVRLAYLESPRLKAVACLGPVVHTLLSDFKCQQQVPEMYLDVLASRLGMHDASDEALRVELNRYSLKVQGLLGRRCPTPMLSGYWKNDPFSPEEDSRLITSSSADGKLLEIPFNPVYRNFDKGLQEITGWIEKRLC | not soluble |
| MALIELRHVKKEFSGKAGKVTALKDIDLTVESGDIYGIIGYSGAGKSTLVRLLNGLETPTEGEVEIQGQDIALLPNKELRNFRKKIGMIFQHFNLLWSRTVLENIMLPLEIAGVPKQNRKSRAEELIKLVGLEGRETAYPSQLSGGQKQRVGIARALANNPDILLCDEATSALDPQTTDEVLELLLKINQELNLTVVLITHEMHVIRKICNRVAVMEYGEIVEEGKVIDIFKKPQTEIAKRFIQQEADKNIEETELVVEEMLEQYPNGKIVRLLFHGEQAKLPIISHIVQEYQVEVSIIQGNIQQTKQGAVGSLYIQLLGEEQNILAAIEGLRKLRVETEVIGNE | not soluble |
| MGSDKIHHHHHHMTHRITILCDNTVGPVSGTLGEHGFAALVEWEGGSLLFDTGMGETLLRNAQRLGRNLAAVPRVVISHGHYDHGGGLWPLLRTCGSKTVLAHPGIFAPRYRVKDTGDPLSIGIPFDEAFLRGQGAHFDFNDRFREVGPGLYLTGEVPRTTAFETGDTGLFCDEAGCRPDPISDDQSLVIRTERGLVLLLGCCHAGVVNTARWALECTGETVVHTVIGGTHLGFCGREQLDETVKSLRELGVHKLVGSHCTGFAAAARLMHEFPGRFHPSAVGYTLEV | not soluble |
| MRTNVPDQQSTVQKLLDENSRLIDIIQEYLNQSRADEAIKHQQLLHRNLLHLSNLADPFLLSQLKDDGTAAAALPDPNQQQPQPGASGPPAPHLQQQQPQHSPQQGHPHPQQGLPAAHHRQQMMPPQAAPSPGGPMQPPHGFAPPPMGGGVPPEMMNHQAYQAQMRQQQQQPNGQAPPPVYPPFGQPAPQMSGQRMPYPYPPQGMPGYPGGPPPPPHGYEGYPPPGAQPGYMR | soluble |
| MEKLSSSSHFLDLGGLDNLRAQAQKDEKGALKKVAQQFEGVFVQMLMKSMRDANAVFESDSPLNSQYTKFYEQMRDQQLSVDLSDKGVLGLADMMVQQLSPESSPFTPASVLRNDGGMKLEHDAKALNIPTQTPSTAEAESANTPVVVAHGVPASIARPSVEFEDNNGVTSSLDIDRPQRLLAIDTPKPTWSEQPLSAIEPVISGQILPTVAFRETQKTLKFGSREEFLATLYPHAEKAAKALGTKPEVLLAQSALETGWGQKIVRGHNGAPSHNLFNIKADRRWQGDKANVSTLEFEQGIAVRQKADFRVYNDFDHSFNDFVSFIADGERYQDAKKVAASPTQFIRALQEAGYATDPKYAEKVIKVMQSISEELKSILPGEDK | not soluble |
| MAHHHHHHMSDCHWAVIRKAVEAEWDASIIPALAAYIEVPNQSPDFDPQWATNGLLTKAFTILINWMKGQNLLGLSYELMEVEGRTPFLLVEIAGTEPTKNTLLMYGHMDKQPPLHPWGEGLDPHKAVVRDGKLYGRGGADDGYALFSAITSVSVLQRHGIPHGRVIVVIEACEESGSFDLDYYMERCKERIGNVDLMICLDSACLNYSQVWLTTSLRGVTGGVLNVQTLTESMHSGVAGGVVPDTFRIARELLDRVEDSKTGKVLFPEAYCEIPDYVVKSMESMKAVPFKEQFAMADGVSAEPGDNVELALRNFWKPSLTVTGSNLPEPQIAGNVIRTHTSLKLSLRVPPLVDAEKATQAMAKVLVANPPYGAKVWFEPEVPGDGCATPELKPWLVTALNEGSKMAYGNPLAFQGMGASIPFISMLLKAYPQAQFVVTGVLGPKSNAHGPNEFLHIEYAKGLTFAISRVVAEHFSHTPK | soluble |
| SNAMSKDSESNLAQRQSQPKAHADLRINSHWIIPIENTTDHNLVSNILIDHCLLIKDGIILAIEPQSSCQIPATETLDLGQQVLMPGWVNAHGHAAMSLFRGLADDLPLMTWLQEHVWPAEAQHVDEHFVKQGTELAIAEMIQSGTTTFADMYFYPQQSGEAALAAGIRAVCFAPVLDFPTNYAQNADEYIRKAIECNDRFNNHPMNEQGLVQIGFGPHAPYTVSDEPLKEITMLSDQLDMPVQIHLHETDFEVSESLETFNKRPTQRLADIGFLNERVSCVHMTQVDDGDIKILQKTGASIIHCPESNLKLASGFCPIAKLSAANIPLAIGTDGAASNNDLDMFSETKTAALLAKGVSQDASAIPAIEALTMATLGGARALGIDDITGSLKPGKAADIQAIDLNTLSSQPVFDPVSHMVYCTKSTQVSHVWVNGRCLLKNGELTTLNEETLINHAKAWASAIRTPIK | soluble |
| MGSDKIHHHHHHMKDDQWLEARAHGDPMFPCNVYRVKEVNGQVIIHCHWHHEMEWIYMEAGEAEFQIGTKMTTVRAGEGLFIPSGHLHGAYPVSDKPFSLYATVVHPDFISSFGYDLIQSRYIDPFKDSERTGPIKLCPTHYWMSDMLTMLQATISQFQQKEEGYELVIKANLLQMMAELVKHFPRTEEQKTGTPQQIRQIKKVLQFIDEHYDEKLTIKQLANLVQMSEGHFSRFFKSIVRMTAVEYIHTQRLNKAARLLRETDRTIMDISMSVGFDHPSYFIKLFKRHKRCTPSEFRRIGLPTFSENMKT | not soluble |
| MAHHHHHHMTSFKDCLREVREAATEHLEGYRGGDTEKALQHIPREEALTTISLVAIRLLEQELPKRGAGNDASQHELHAQLRACRKALKSHSARSAAGDEGTSDKKRRRTEESTEAPTSSSYRGSATADRSGTSNSIELGQYASSDAFDQNEQKRMKFARLMGGAKVAAQGTGGAGGHSRHNTFAASNAELKRMNANLESQFESAMSHKGKKGLGA | soluble |
| MGGSHHHHHHGMASLAPGSSRVELFKRQSSKVPFEKDGKVTERVVHSFRLPALVNVDGVMVAIADARYETSFANSLIDTVAKYSVDDGETWETQIAIKNSRASSVSRVVDPTVIVKGNKLYVLVGSYNSSRSYWTSHGDARDWDILLAVGEVTKSTAGGKITASIKWGSPVSLKEFFPAEMEGMHTNQFLGGAGVAIVASNGNLVYPVQVTNKKKQVFSKIFYSEDEGKTWKFGKGRSAFGCSEPVALEWEGKLIINTRVDYRRRLVYESSDMGNTWLEAVGTLSRVWGPSPKSNQPGSQSSFTAVTIEGMRVMLFTHPLNFKGRWLRDRLNLWLTDNQRIYNVGQVSIGDENSAYSSVLYKDDKLYCLHEINSNEVYSLVFARLVGELRIIKSVLQSWKNWDSHLSSICTPADPAASSSERGCGPAVTTVGLVGFLSHSATKTEWEDAYRCVNASTANAERVPNGLKFAGVGGGALWPVSQQGQNQRYHFANHAFTLVASVTIHEVPKGASPLLGASLDSSGGKKLLGLSYDKRHQWQPIYGSTPVTPTGSWEMGKRYHVVLTMANKIGSVYIDGEPLEGSGQTVVPDERTPDISHFYVGGYKRSGMPTDSRVTVNNVLLYNRQLNAEEIRTLFLSQDLIGTEAHMD | soluble |
| METSPVFIDYVTIRQEYFGGGLPVLNDGKVLKVDADGEIEYSTDVRCIIEGSYDSRVQVRCDGNTVEFTGNISRYGRRDNLFGYDWPTTIARINDLLSLLGLPPFTSGKLYKFADTGWSWSGARVSRIDLTCNYSTGSKESMHAVLCHMAGQHVGRQKGSLSPDSGTVEYGRGSKYVYGKLYAKYQELEKHRSKKSGSHVSDDVIDYCKTEGILREEFTLKSRFLLQNNLAYLGAITQDNLNQILEHHHHHH | not soluble |
| MTYVLAESPEFYQDNVTDYTGQISSSDITNIQAAIDDVKASEQKVIFVVFLSSFDGVDPETWTQQALQANGGGNVLIYALAPEERQYGIQGGTQWTDAELDAANNAAFQALSQEDWAGSALALAESVGSSSSSSLEHHHHHH | not soluble |
| MGSDKIHHHHHHMSIAHQNAHTIIRDILSKQHIERVWFVGCGGSLTGFWPGKYFLDCEAKKLAVGYVTSNEFVHATPNALGKNSVVILASQQGNTAETVEAARIARQKGAATIGLVYTPGTPLCEHSDYTIKYCWARYPETVDPTQQKAAYSLWLALEVLAQTEGYAHYDEMVSAFASFESVVRGAQQQVQADARHFAEAWKTEKVIYMMGSGPSFGAAHQESICILLEMQWINSASIHSGEYFHGPFEITETGTPFILLKSSGRTRPLDDRAIRFIERYQGKLQIIDVEKVGINALHASVREYFCGLLHNCVLDVYNLALATARNHPLTTRRYMWKVEY | not soluble |
| MGSDKIHHHHHHMMDLEGYVRRCLRKKIPENKIIEDGFKRILEIKEDVDEEFAKKFIKAILEEVKTTEKFREIDDENLKTLLKYPKSGVTMGRMGVGSRGEGDFFVHREIARIVKSTKVKAYVSAEEQDDAGIVRADAKYIVAAIDGTHSRLSDFPFLGGFHVTRAALRDIYVMGAEAVALISDVHLADDGDVGKIFDFTAGICAVSEAVNVPLIGGSTLRVGGDMVIGDRLVSAVGAIGVIKEGEPTARRNAEVGDVILMTEGSGGGTITTTALYYGWFDVIYETLNVDFIKACQNLIRSGLIKKIHAMTDVTNGGLRGDAYEISKTAKVSLIFDKEKVYKTINPKVLEMLEVLNIDPLGVSTDSLMIICPEEYADDIKKVTGAIEVGYVEEGEESYLVDGNKKIPLKPMFRESAYTPVKKVVGERKPGDFEEMKEKVRRACDEAIKKKDFVVELLKERKKKF | not soluble |
| PYIEIFEQPRQRGMRFRYKCEGRSAGSIPGEHSTDNNKTFPSIQILNYFGKVKIRTTLVTKNEPYKPHPHDLVGKDCRDGYYEAEFGPERRVLSFQNLGIQCVKKKDLKESISLRISKKINPFNVPEEQLHNIDEYDLNVVRLCFQAFLPDEHGNYTLALPPLISNPIYDNRAPNTAELRICRVNKNCGSVKGGDEIFILCDKVQKDDIEVRFVLDNWEAKGSFSQADVHRQVAIVFRTPPFLRDITEPITVKMQLRRPSDQEVSEPMDFRYLPD | soluble |
